This note sets out measurements from patent publication US20090081195A1, “Inhibitors of Ste20-like Kinase (SLK) and Methods of Modulating Cell Cycle Progression and Cell Motility” (OTTAWA HEALTH RESEARCH INSTITUTE, priority 2005, published 2009).

The target in series [1] is T1, GST-tagged recombinant SLK (Mus musculus, UniProt O54988).
T1 construct: GST (N); made in house; host or cells: bacteria (IPTG-induced, pGEX vector)
The series is described as follows: Recombinant SLK kinase assay on histone H1. Format: biochemical, murine. To be noted: recombinant His-tagged Ldb added to GST-SLK, substrate histone H1. The source says:
(a-left panel) MEFs obtained from floxed-Ldb1 mice were generated and infected with recombinant adenovirus harbouring a GFP or Cre recombinase cDNA. […] (right panel) SLK was immunoprecipitated from lysates obtained from Ad-GFP or Ad-Cre infected cells. SLK precipitation efficiency and kinase activity was consistently greater in lysates from Cre-infected cells. In addition, Ldb2 association with the SLK complex was lost in cells lacking Ldb1 (bottom panel). (b) Ldb2 interacts with SLK kinase domain and ATH. […] (c) Ldb1/2 inhibit SLK kinase activity in vitro. Recombinant GST-tagged SLK was prepared and mixed with recombinant His-tagged Ldb2 (lane 2), His-tagged Ldb1 (lane 3) or both (lane 4) and assayed for kinase activity on histone H1. Addition of recombinant Ldb proteins inhibited SLK activity (d) Activation of SLK by scratch wounding is accompanied by a conformational change. Endogenous SLK complexes were immunoprecipitated from unscratched MEFs or 60 min post-wounding and subjected to trypsin digestion. Differential trypsin sensitivity was observed indicative of altered conformation.
Recombinant SLK was prepared by inducing an overnight culture of GST-SLK with IPTG and preparing GST SLK as described above. […]

For series [2], the target named is T2, SLK (Mus musculus, UniProt O54988).
T2 construct: made in house; host or cells: bacteria (IPTG-induced; pGEX-5X or 4T1)
T2 sequence (O54988 981-1233): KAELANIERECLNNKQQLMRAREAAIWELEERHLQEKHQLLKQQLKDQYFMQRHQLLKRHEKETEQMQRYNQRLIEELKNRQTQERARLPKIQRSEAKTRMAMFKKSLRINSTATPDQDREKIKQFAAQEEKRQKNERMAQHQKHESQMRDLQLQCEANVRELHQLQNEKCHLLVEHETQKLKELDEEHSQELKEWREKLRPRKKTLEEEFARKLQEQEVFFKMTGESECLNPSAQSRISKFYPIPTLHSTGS
The series is described as follows: In vitro binding assay, GST-SLK fusions with [35S]-labeled Ldb. Details: species or system murine. To be noted: GST pulldown, autoradiography. As to the method: (§1) GST fusion proteins were generated by induction of bacterial cultures with 1 mM isopropyl-beta-D-thiogalactopyranoside (IPTG, Sigma) for 2 hours. Bacteria were pelleted, resuspended in 1 ml bacterial lysis buffer (20% sucrose, 10% glycerol, 50 mM Tris-HCl pH 8.0, 2 mM MgCl2, 2 mM DTT, 10 μg/ml leupeptin, 10 μg/ml pepstatin, 10 μg/ml aprotinin, 1 mM phenylmethylsulphonylfluoride [PMSF] and 100 μM benzamidine) and sonicated on ice.
(§2) Glutathione sepharose beads (Amersham Pharmacia) were added to the cleared supernatants and bound GST fusions were collected by centrifugation, washed three times with NETN and subjected to binding assays. In vitro translated proteins were generated using the TNT quick coupled in vitro transcription translation kit (Promega) according to the manufacturer's instructions. Translated proteins were incubated with either GST or GST fusions in NETN buffer, washed with NETN and eluted from the beads by boiling in sample buffer. Proteins were fractionated by SDS-PAGE, the gels were stained with Coomassie brilliant blue (Sigma) to visualize the proteins, destained (30% methanol, 10% acetic acid), dried and subjected to autoradiography.

A further series relates to α-tubulin. Briefly: GST pulldown binding to α-tubulin. To be noted: in vitro. The source says:
Co-localization of Rac1 (d), Paxillin (e) and Ldb1 (f) with SLK (a-c) in membrane ruffles of migrating fibroblasts on fibronectin (arrowhead). Note the absence of SLK in mature adhesions identified by Paxillin staining (e; arrow). […] (m) Ldb2 binds α-tubulin.

In series [3] the target is T3, SLK (Mus musculus, UniProt O54988).
T3 construct: made in house; host or cells: bacteria (IPTG-induced; pGEX-5X or 4T1)
The series is described as follows: In vitro binding assay, GST-SLK fusions with [35S]-labeled Ldb. On the set-up: species or system murine. Particulars: carboxy-terminal deletion lacking the latter two thirds of the ATH domain. As to the method:
as §1, §2
T3 sequence (O54988 1-950 isoform O54988-2): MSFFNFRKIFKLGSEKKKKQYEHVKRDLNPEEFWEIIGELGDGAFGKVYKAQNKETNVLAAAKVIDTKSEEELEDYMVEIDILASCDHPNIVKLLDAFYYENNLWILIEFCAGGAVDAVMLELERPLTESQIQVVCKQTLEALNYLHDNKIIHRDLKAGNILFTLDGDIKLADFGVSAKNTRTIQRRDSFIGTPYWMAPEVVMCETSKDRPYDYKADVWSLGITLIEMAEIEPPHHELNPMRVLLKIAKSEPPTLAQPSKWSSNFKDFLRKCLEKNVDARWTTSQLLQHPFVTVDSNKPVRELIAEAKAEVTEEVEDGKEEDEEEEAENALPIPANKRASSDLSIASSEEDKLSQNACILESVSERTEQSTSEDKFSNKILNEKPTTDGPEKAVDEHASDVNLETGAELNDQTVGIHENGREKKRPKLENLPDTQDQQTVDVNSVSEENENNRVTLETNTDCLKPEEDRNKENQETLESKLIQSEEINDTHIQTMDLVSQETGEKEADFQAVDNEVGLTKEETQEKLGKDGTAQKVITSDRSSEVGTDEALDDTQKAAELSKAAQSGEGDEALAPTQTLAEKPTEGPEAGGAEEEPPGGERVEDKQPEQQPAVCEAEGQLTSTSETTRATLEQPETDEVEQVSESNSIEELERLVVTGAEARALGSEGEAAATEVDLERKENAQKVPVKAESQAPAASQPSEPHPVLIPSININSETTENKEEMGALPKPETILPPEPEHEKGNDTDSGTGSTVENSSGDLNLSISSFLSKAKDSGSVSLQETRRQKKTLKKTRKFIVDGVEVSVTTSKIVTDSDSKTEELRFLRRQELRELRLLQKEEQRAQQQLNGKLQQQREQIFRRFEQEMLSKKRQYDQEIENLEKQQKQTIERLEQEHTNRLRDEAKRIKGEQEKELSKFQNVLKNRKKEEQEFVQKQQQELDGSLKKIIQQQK

Series [4] relates to SLK. Described as above. Details: species or system murine. Particulars: deletions lacking the ATH domain, prolonged exposures. Here is the method:
as §1, §2

T1 sequence (O54988 1-1202 isoform O54988-2): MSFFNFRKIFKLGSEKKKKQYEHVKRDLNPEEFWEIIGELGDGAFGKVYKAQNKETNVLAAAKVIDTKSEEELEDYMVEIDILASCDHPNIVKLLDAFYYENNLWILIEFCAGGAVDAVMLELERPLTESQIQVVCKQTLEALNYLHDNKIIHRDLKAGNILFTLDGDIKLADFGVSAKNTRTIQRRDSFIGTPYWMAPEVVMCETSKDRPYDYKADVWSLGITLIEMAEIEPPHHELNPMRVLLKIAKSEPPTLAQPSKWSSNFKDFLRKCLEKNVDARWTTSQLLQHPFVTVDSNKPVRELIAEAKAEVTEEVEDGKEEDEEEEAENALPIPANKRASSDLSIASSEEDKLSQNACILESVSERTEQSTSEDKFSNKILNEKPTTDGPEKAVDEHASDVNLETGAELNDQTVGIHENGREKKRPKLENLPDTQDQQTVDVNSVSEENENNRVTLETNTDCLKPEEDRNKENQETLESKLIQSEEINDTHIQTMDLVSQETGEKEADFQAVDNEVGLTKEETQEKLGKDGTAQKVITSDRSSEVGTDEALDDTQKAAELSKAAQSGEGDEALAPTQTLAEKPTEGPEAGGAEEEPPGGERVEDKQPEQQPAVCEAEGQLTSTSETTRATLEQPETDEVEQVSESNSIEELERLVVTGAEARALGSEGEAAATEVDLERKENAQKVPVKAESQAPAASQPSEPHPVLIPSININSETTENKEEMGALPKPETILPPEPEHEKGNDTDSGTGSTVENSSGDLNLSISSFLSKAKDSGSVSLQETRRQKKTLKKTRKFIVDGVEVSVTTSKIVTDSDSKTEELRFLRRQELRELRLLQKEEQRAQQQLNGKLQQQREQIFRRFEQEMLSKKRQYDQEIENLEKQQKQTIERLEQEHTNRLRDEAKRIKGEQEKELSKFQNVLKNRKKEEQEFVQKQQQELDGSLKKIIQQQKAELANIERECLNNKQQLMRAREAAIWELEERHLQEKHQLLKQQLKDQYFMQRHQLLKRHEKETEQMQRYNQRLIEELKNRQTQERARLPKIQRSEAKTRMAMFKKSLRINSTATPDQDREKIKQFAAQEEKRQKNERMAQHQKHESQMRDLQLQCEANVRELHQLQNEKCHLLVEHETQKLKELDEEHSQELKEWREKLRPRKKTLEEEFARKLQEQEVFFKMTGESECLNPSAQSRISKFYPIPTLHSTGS

B1: Ldb1: LIM domain binding transcription co-factor; recombinant His-tagged or in vitro translated protein, SLK binding partner (protein)
chain: MLDRDVGPTPMYPPTYLEPGIGRHTPYGNQTDYRIFELNKRLQNWTEECDNLWWDAFTTEFFEDDAMLTITFCLEDGPKRYTIGRTLIPRYFRSIFEGGATELYYVLKHPKEAFHSNFVSLDCDQGSMVTQHGKPMFTQVCVEGRLYLEFMFDDMMRIKTWHFSIRQHRELIPRSILAMHAQDPQMLDQLSKNITRCGLSNSTLNYLRLCVILEPMQELMSRHKTYSLSPRDCLKTCLFQKWQRMVAPPAEPARQQPSKRRKRKMSGGSTMSSGGGNTNNSNSKKKSPASTFALSSQVPDVMVVGEPTLMGGEFGDEDERLITRLENTQFDAANGIDDEDSFNNSPALGANSPWNSKPPSSQESKSENPTSQASQ
modifications: left off: large carriers
Consider B1, for which the SLK kinase activity result in series [1] is recorded as “reduced SLK activity”. Besides, the “binding to SLK ATH domain (SLK 950-1202)” value with SLK [2] is “indistinguishable from Ldb2”. The “binding to α-tubulin” value with α-tubulin was “not”.

B2: Ldb2: LIM domain binding transcription co-factor, paralog of Ldb1; recombinant His-tagged or in vitro translated protein (protein)
chain: MSSTPHDPFYSSPFGPFYRRHTPYMVQPEYRIYEMNKRLQSRTEDSDNLWWDAFATEFFEDDATLTLSFCLEDGPKRYTIGRTLIPRYFSTVFEGGVTDLYYILKHSKESYHNSSITVDCDQCAMVTQHGKPMFTKVCTEGRLILEFTFDDLMRIKTWHFTIRQYRELVPRSILAMHAQDPQVLDQLSKNITRMGLTNFTLNYLRLCVILEPMQELMSRHKTYNLSPRDCLKTCLFQKWQRMVAPPAEPTRQPTTKRRKRKNSTSSTSNSSAGNTTNSAGSKKKTPAASLSLATQVPDVMVVGEPTLMGGEFGDEDERLITRLENTQYDAANGMDDEEDFNNSPALGNNSPWNSKPPATQETKSENAPPQASQ
modifications: left off: large carriers
notes: recombinant His-tagged or in vitro translated protein
Regarding B2, the SLK kinase activity entry in series [1] is listed as “reduced SLK activity”. In the series with SLK [3], the “binding to SLK 1-950” value is recorded as “moderate affinity”. In the series with SLK [2], the “binding to SLK ATH domain (SLK 950-1202)” value is given as “highest affinity”. In addition, in the series with SLK [4], the “binding to GST-SLK-1-551, GST-SLK-1-373” value is recorded as “weak binding”. For the same molecule, the “binding to α-tubulin” value with α-tubulin is “found to bind α-tubulin in vitro”.
